For test [1], the target named is T1, catalytic domain of human LOXL2 (545-775) (human, UniProt Q9Y4K0 545-774).
T1 construct: No vector-derived tag is stated; also called recombinant catalytic domain of LOXL2; catalytic fragment
The test is described as follows: ELISA; plate coated with the catalytic domain of LOXL2, antibody titrated. As to the method:
(§1) A 96 well plate (Nunc) was coated with LOXL2 or BSA at 5 μg/ml. After the plate was coated, it was incubated with the antibody for 1 h at 25° C. The bound antibody was detected by peroxidase-conjugated antibody goat anti mouse according to standard procedures. The EC₅₀ was calculated from a four-parametric sigmoidal-curve fitting analysis.

The target of test [2] is T1, catalytic domain of human LOXL2 …. The test is described as follows: ELISA; plate coated with the catalytic domain of LOXL2, antibody titrated, detection with peroxidase-conjugated goat anti-mouse antibody. As to the method:
as §1
A general note: In an ELISA, binding on a coated surface is turned into a signal by an enzyme label.

Test [3] deals with T2, human LOXL2 (full length enzyme) (human, UniProt Q9Y4K0 26-774).
T2 construct: also called lysyl-oxidase like protein-2
T2 sequence: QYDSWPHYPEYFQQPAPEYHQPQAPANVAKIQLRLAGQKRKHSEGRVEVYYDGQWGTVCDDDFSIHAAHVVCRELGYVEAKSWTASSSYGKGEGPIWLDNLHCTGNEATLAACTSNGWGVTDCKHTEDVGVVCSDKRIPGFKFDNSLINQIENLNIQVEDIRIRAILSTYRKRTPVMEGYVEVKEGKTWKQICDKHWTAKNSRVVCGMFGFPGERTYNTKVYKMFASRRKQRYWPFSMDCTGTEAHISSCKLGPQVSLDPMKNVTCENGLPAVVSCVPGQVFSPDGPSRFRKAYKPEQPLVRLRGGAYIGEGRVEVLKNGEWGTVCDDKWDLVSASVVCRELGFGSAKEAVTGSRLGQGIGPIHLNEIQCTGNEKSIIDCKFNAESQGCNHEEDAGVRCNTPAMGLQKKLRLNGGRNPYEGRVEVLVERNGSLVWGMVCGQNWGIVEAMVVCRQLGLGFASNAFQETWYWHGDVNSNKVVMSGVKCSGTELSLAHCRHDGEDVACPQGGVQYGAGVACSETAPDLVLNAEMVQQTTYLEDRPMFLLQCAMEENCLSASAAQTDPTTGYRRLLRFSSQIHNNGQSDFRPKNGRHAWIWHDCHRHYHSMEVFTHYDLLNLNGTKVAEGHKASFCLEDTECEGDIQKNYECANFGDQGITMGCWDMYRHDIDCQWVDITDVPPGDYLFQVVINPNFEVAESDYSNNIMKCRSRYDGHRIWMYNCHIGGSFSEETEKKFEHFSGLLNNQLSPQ
The test is described as follows: microscale thermophoresis in solution; x axis printed as [LOXL2], nM; LOXL2 construct not specified on the sheet or in the legend. (In general: Microscale thermophoresis detects binding through changes in fluorescence in a small temperature gradient.)

What is called EC50 (read off the curve) is the concentration giving half of the maximal effect. As a reminder, the EC50 is the concentration needed to bring the measured effect to its halfway point. Higher therefore signals weaker potency. A word on the Kd: it is a measure of binding affinity in units of concentration. High values mean lower affinity, low ones higher affinity.

B1: GS341 antibody (antibody, V domains shown)
VH: QVQLQQPGAELVRPGASVKLSCKASGYSFTNYWMSWVKQRPGQGLEWIGMIHPSDTDIRLHQKFKDKATLTVDKSSSTAYVQLSSPTSEDSAVYYCARGGQLGPWFAYWGQGTLVTVSA
VL: DIVMTQSPASLAVSLGQRATISCRASKSVSTSGYSYMHWYQQKPGQPPKLLIYLASNLESGVPARFSGSGSGTFTLNIHPVEEEDAATYYCQHSRELPWTFGGGTKLEIKR
notes: also called A341; ab341
As for B1, the “EC50 (read off the curve)” value in test [1] is around 0.4 nM. The response in test [2] was half-maximal at 0.35 nM (EC50). This molecule returned a Kd in test [3] of 6.97 nM.

Source of the values: US20170210823A1 (YEDA RESEARCH AND DEVELOPMENT, published 2017).
